Measurements: patent publication US20030158387A1
Where two headings read alike, the source gives them in different places. *: point of attachment. Nonanoyl = CCCCCCCCC(=O)*

Key:
[1] = target: chemokine receptor 1 (CCR1) (UniProt P56482)
[2] = target: chemokine receptor 1 (CCR1) (UniProt P56482); remark: listed apart in the source
[3] = target: chemokine receptor 1 (CCR1) (UniProt P56482); assay: cell-based or functional assay
[4] = target: chemokine receptor 1 (CCR1) (UniProt P56482); assay: competition with 125I-RANTES for binding to CCR1
[5] = target: chemokine receptor 1 (CCR1) (UniProt P56482); assay: competition radioligand binding, membranes of CHO-K1 cells expressing CCR1, tracer [125I]-MIP-1 alpha
[6] = target: chemokine receptor 1 (CCR1) (UniProt P56482); assay: competition with 125I-RANTES, membranes of CHO-K1 cells expressing CCR1, filtration, one site competition model; 125I-Rantes tracer, CCR1 membranes
[7] = target: chemokine receptor 1 (CCR1) (UniProt P56482); remark: listed apart in the source
[8] = target: chemokine receptor 1 (CCR1) (UniProt P56482); assay: competition radioligand binding, membranes of CHO-K1 cells expressing CCR1, tracer [125I]-MIP-1 alpha; remark: listed apart in the source
[9] = target: chemokine receptor 5 (CCR5) (human), P51681; assay: competition radioligand binding, membranes of CHO-K1 cells expressing CCR5, tracer [125I]-MIP-1 beta; details: remark: other sources report otherwise
Chain of chemokine receptor 5 (CCR5) (human), P51681 (P51681 whole entry): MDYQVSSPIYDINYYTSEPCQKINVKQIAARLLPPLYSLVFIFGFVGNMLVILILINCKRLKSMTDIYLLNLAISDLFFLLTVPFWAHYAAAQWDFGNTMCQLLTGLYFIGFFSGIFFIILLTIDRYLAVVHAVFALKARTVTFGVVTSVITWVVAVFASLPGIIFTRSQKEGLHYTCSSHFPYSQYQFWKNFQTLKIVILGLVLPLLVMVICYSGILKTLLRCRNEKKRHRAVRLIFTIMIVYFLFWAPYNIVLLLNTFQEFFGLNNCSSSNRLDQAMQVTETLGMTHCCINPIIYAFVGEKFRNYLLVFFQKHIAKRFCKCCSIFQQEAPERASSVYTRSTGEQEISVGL

[10] = target: chemokine receptor 5 (CCR5) (human), P51681; assay: competition radioligand binding, membranes of CHO-K1 cells expressing CCR5, tracer [125I]-MIP-1 beta; mean ± SEM; details: remark: other sources report otherwise
[11] = target: chemokine receptor 1 (CCR1) (UniProt P56482); assay: competition radioligand binding on CCR1 (assay not given)

B1: processed human chemokine PHC-1 (HCC-1[9-74]) (ligand)
chain: GPYHPSECCFTYTTYKIPRQRIMDYYETNSQCSKPGIVFITKRGHSVCTNPSDKWVQDYIKDMKEN
- EC50 (aequorin luminescence, CHO-K1 cells expressing CCR1) [1]: 2.62 nM
- EC50 (read off the curve) [2]: 2 nM
- EC50 of receptor activation (aequorin assay) [3]: 2.8 nM
- Ki [4]: 0.023 nM
- IC50 (read off the curve) [5]: 0.2 nM
- IC50 [6]: 2.3 nM

B2: NNY-HCC-1[10-74] (nonanoyl-HCC-1[10-74]) (ligand)
chain: Nonanoyl-PYHPSECCFTYTTYKIPRQRIMDYYETNSQCSKPGIVFITKRGHSVCTNPSDKWVQDYIKDMKEN
modifications: ends and bridges not checked
- EC50 (aequorin luminescence, CHO-K1 cells expressing CCR1) [1]: 5.9 nM
- EC50 (read off the curve) [7]: 4 nM
- IC50 (read off the curve) [8]: 0.1 nM

B3: HCC-1, residues 6-74 (ligand)
chain: SSRGPYHPSECCFTYTTYKIPRQRIMDYYETNSQCSKPGIVFITKRGHSVCTNPSDKWVQDYIKDMKEN
- EC50 (aequorin luminescence, CHO-K1 cells expressing CCR1) [1]: 262 nM

B4: HCC-1[7-74] (ligand)
chain: SRGPYHPSECCFTYTTYKIPRQRIMDYYETNSQCSKPGIVFITKRGHSVCTNPSDKWVQDYIKDMKEN
- EC50 (aequorin luminescence, CHO-K1 cells expressing CCR1) [1]: 218 nM

B5: HCC-1[10-74] (ligand)
chain: PYHPSECCFTYTTYKIPRQRIMDYYETNSQCSKPGIVFITKRGHSVCTNPSDKWVQDYIKDMKEN
- EC50 (aequorin luminescence, CHO-K1 cells expressing CCR1) [1]: 4.32 nM
- EC50 (read off the curve) [2]: 3 nM
- IC50 (read off the curve) [5]: 0.2 nM
- IC50 (read off the curve) [8]: 0.1 nM

B6: HCC-1[8-74] (ligand)
chain: RGPYHPSECCFTYTTYKIPRQRIMDYYETNSQCSKPGIVFITKRGHSVCTNPSDKWVQDYIKDMKEN
- EC50 (aequorin luminescence, CHO-K1 cells expressing CCR1) [1]: 35.2 nM

B7: HCC-1[11-74] (ligand)
chain: YHPSECCFTYTTYKIPRQRIMDYYETNSQCSKPGIVFITKRGHSVCTNPSDKWVQDYIKDMKEN
- EC50 (aequorin luminescence, CHO-K1 cells expressing CCR1) [1]: 40.3 nM

B8: RANTES, P13501 24-91 (ligand, UniProt P13501 24-91, looked up)
chain: SPYSSDTTPCCFAYIARPLPRAHIKEYFYTSGKCSNPAVVFVTRKNRQVCANPEKKWVREYINSLEMS
modifications: ends and bridges not checked; also: 125I-labelled where used as tracer, unlabelled in functional assays
- IC50 (read off the curve) [9]: 0.1 nM
- IC50 [10]: 0.116 nM

B9: HCC-1[12-74] (ligand)
chemokine chain: HPSECCFTYTTYKIPRQRIMDYYETNSQCSKPGIVFITKRGHSVCTNPSDKWVQDYIKDMKEN
- IC50 (read off the curve) [5]: 40 nM

B10: full size human chemokine HCC-1 (residues 1-74) (ligand)
chain: TKTESSSRGPYHPSECCFTYTTYKIPRQRIMDYYETNSQCSKPGIVFITKRGHSVCTNPSDKWVQDYIKDMKEN
- Ki [11]: 100 nM
